Laboratory results: patent US20230220042A1 (SHANGHAI JIAO TONG UNIVERSITY SCHOOL OF MEDICINE, published 2023)

T1: Biotin-FcγRIIB (human, UniProt P31994 43-217, limits assumed, biotin-labelled)
T1 construct: Bought, biotin-labelled; used at 1 µg/ml for staining and sorting; also called human FcγRIIB; CD32b
T1 sequence (looked up): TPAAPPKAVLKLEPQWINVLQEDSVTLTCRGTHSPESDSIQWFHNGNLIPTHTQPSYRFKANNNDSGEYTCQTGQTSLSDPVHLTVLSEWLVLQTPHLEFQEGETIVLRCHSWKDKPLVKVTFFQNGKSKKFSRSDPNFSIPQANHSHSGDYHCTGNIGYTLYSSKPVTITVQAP


Legend:
Biotin-FcγRIIB [1] = target: T1, Biotin-FcγRIIB; assay: FACS sorting of displayed Fc library on biotin-FcγRIIB, NGS
Biotin-FcγRIIB [2] = target: T1, Biotin-FcγRIIB; assay: magnetic sorting on biotin-FcγRIIB with unlabelled activating FcγRs, NGS; LibraryMix #4
Protocol: 3T3 cells were collected by trypsin digestion, and a single cell suspension was prepared. […] The cells were incubated for 15 minutes on ice and then washed twice with MACS buffer and re-suspended in 100 μl MACS buffer. Twenty-five μl anti-Biotin magnetic beads were added, and the cells were incubated for 15 minutes on ice and then washed once with MACS buffer and re-suspended to 500 μl, and added to the LS column put in the magnetic field. The effluent was collected, washed with 3 mL of MACS buffer and collected; The LS column was then removed out of the magnetic field, and 5 mL of MACS buffer was used to rapidly elute the remaining cells from the sorting column to collect positive cells, which are the high I/A ratio cells.
The high-FcγRIIB-affinity cells obtained from the above flow cytometry sorting are further sorted by magnetic-activated sorting. The cells are incubated with the mixture of Biotin-labeled FcγRIIB and non-labeled activating FcγRs, and then the labeled cells are sorted by anti-Biotin magnetic beads. The enrichment ratios after sorting relative to before sorting are analyzed by NGS.

Row | Binder | Increased factor b Site 1 (point mutation/wild-type) (Biotin-FcγRIIB [1]) | Increased factor b Site 2 (point mutation/wild-type) (Biotin-FcγRIIB [1]) | Enrichment factor (percentage after sorting/percentage before sorting) (Biotin-FcγRIIB [2]) | Increased factor (mutation enrichment factor/wild-type enrichment factor) (Biotin-FcγRIIB [2]) | Percentage after sorting/unbinding percentage (Biotin-FcγRIIB [2]) | Percentage before sorting/unbinding percentage (Biotin-FcγRIIB [2])
1 | human IgG2 anti-mouse CD40 surface displayed antibody, Fc mutant P271G (antibody, name in EU numbering, as m1; positions are Eu numbers; copies: 2 + 2) light chain (with the P2A rest): DTVLTQSPALAVSPGERVTISCRASDSVSTLMHWYQQKPGQQPKLLIYLASHLESGVPARFSGSGSGTDFTLTIDPVEADDTATYYCQQSWNDPWTFGGGTKLELKRTVAAPSVFIFPPSDEQLKSGTASVVCLLNNFYPREAKVQWKVDNALQSGNSQESVTEQDSKDSTYSLSSTLTLSKADYEKHKVYACEVTHQGLSSPVTKSFNRGECGSGATNFSLLKQAGDVEENPG heavy chain: EVQLVESDGGLVQPGRSLKLPCAASGFTFSDYYMAWVRQAPTKGLEWVASISYDGSSTYYRDSVKGRFTISRDNAKSTLYLQMDSLRSEDTATYYCGRHSSYFDYWGQGVMVTVSSASTKGPSVFPLAPCSRSTSESTAALGCLVKDYFPEPVTVSWNSGALTSGVHTFPAVLQSSGLYSLSSVVTVPSSNFGTQTYTCNVDHKPSNTKVDKTVERKCCVECPPCPAPPVAGPSVFLFPPKPKDTLMISRTPEVTCVVVDVSHEDGEVQFNWYVDGVEVHNAKTKPREEQFNSTFRVVSVLTVVHQDWLNGKEYKCKVSNKGLPAPIEKTISKTKGQPREPQVYTLPPSREEMTKNQVSLTCLVKGFYPSDIAVEWESNGQPENNYKTTPPMLDSDGSFFLYSKLTVDKSRWQQGNVFSCSVMHEALHNHYTQKSLSLSPGKLEPPPSTVSNMATVAVLVVLGAAIVTGAVVAFVMKMRRRNTGGKGGDYALAPGSQTSDLSLPDCKVMVHDPHSLA | 4.7 | 4.7 | 3.66 | 3.89 | 19 | 5.18
2 | human IgG2 anti-mouse CD40 surface displayed antibody, Fc mutant P271G/I332L (antibody, name in EU numbering, as m1; positions are Eu numbers; copies: 2 + 2) light chain (with the P2A rest): DTVLTQSPALAVSPGERVTISCRASDSVSTLMHWYQQKPGQQPKLLIYLASHLESGVPARFSGSGSGTDFTLTIDPVEADDTATYYCQQSWNDPWTFGGGTKLELKRTVAAPSVFIFPPSDEQLKSGTASVVCLLNNFYPREAKVQWKVDNALQSGNSQESVTEQDSKDSTYSLSSTLTLSKADYEKHKVYACEVTHQGLSSPVTKSFNRGECGSGATNFSLLKQAGDVEENPG heavy chain: EVQLVESDGGLVQPGRSLKLPCAASGFTFSDYYMAWVRQAPTKGLEWVASISYDGSSTYYRDSVKGRFTISRDNAKSTLYLQMDSLRSEDTATYYCGRHSSYFDYWGQGVMVTVSSASTKGPSVFPLAPCSRSTSESTAALGCLVKDYFPEPVTVSWNSGALTSGVHTFPAVLQSSGLYSLSSVVTVPSSNFGTQTYTCNVDHKPSNTKVDKTVERKCCVECPPCPAPPVAGPSVFLFPPKPKDTLMISRTPEVTCVVVDVSHEDGEVQFNWYVDGVEVHNAKTKPREEQFNSTFRVVSVLTVVHQDWLNGKEYKCKVSNKGLPAPLEKTISKTKGQPREPQVYTLPPSREEMTKNQVSLTCLVKGFYPSDIAVEWESNGQPENNYKTTPPMLDSDGSFFLYSKLTVDKSRWQQGNVFSCSVMHEALHNHYTQKSLSLSPGKLEPPPSTVSNMATVAVLVVLGAAIVTGAVVAFVMKMRRRNTGGKGGDYALAPGSQTSDLSLPDCKVMVHDPHSLA | – | – | 2.82 | 3 | 16 | 5.66
3 | human IgG2 anti-mouse CD40 surface displayed antibody, Fc mutant P238Q/S267E (antibody, name in EU numbering, as m1; positions are Eu numbers; copies: 2 + 2) light chain (with the P2A rest): DTVLTQSPALAVSPGERVTISCRASDSVSTLMHWYQQKPGQQPKLLIYLASHLESGVPARFSGSGSGTDFTLTIDPVEADDTATYYCQQSWNDPWTFGGGTKLELKRTVAAPSVFIFPPSDEQLKSGTASVVCLLNNFYPREAKVQWKVDNALQSGNSQESVTEQDSKDSTYSLSSTLTLSKADYEKHKVYACEVTHQGLSSPVTKSFNRGECGSGATNFSLLKQAGDVEENPG heavy chain: EVQLVESDGGLVQPGRSLKLPCAASGFTFSDYYMAWVRQAPTKGLEWVASISYDGSSTYYRDSVKGRFTISRDNAKSTLYLQMDSLRSEDTATYYCGRHSSYFDYWGQGVMVTVSSASTKGPSVFPLAPCSRSTSESTAALGCLVKDYFPEPVTVSWNSGALTSGVHTFPAVLQSSGLYSLSSVVTVPSSNFGTQTYTCNVDHKPSNTKVDKTVERKCCVECPPCPAPPVAGQSVFLFPPKPKDTLMISRTPEVTCVVVDVEHEDPEVQFNWYVDGVEVHNAKTKPREEQFNSTFRVVSVLTVVHQDWLNGKEYKCKVSNKGLPAPIEKTISKTKGQPREPQVYTLPPSREEMTKNQVSLTCLVKGFYPSDIAVEWESNGQPENNYKTTPPMLDSDGSFFLYSKLTVDKSRWQQGNVFSCSVMHEALHNHYTQKSLSLSPGKLEPPPSTVSNMATVAVLVVLGAAIVTGAVVAFVMKMRRRNTGGKGGDYALAPGSQTSDLSLPDCKVMVHDPHSLA | – | – | 3.7 | 3.93 | 4.36 | 1.18

Second part, the binder after the results:

Row | Increased factor b Site 1 (point mutation/wild-type) (Biotin-FcγRIIB [1]) | Increased factor b Site 2 (point mutation/wild-type) (Biotin-FcγRIIB [1]) | Enrichment factor (percentage after sorting/percentage before sorting) (Biotin-FcγRIIB [2]) | Increased factor (mutation enrichment factor/wild-type enrichment factor) (Biotin-FcγRIIB [2]) | Percentage after sorting/unbinding percentage (Biotin-FcγRIIB [2]) | Percentage before sorting/unbinding percentage (Biotin-FcγRIIB [2]) | Binder
4 | 28.5 | – | 2.86 | 3.04 | 52.6 | 18.4 | human IgG2 anti-mouse CD40 surface displayed antibody, Fc mutant S267E (antibody, name in EU numbering, as m1; positions are Eu numbers; copies: 2 + 2) light chain (with the P2A rest): DTVLTQSPALAVSPGERVTISCRASDSVSTLMHWYQQKPGQQPKLLIYLASHLESGVPARFSGSGSGTDFTLTIDPVEADDTATYYCQQSWNDPWTFGGGTKLELKRTVAAPSVFIFPPSDEQLKSGTASVVCLLNNFYPREAKVQWKVDNALQSGNSQESVTEQDSKDSTYSLSSTLTLSKADYEKHKVYACEVTHQGLSSPVTKSFNRGECGSGATNFSLLKQAGDVEENPG heavy chain: EVQLVESDGGLVQPGRSLKLPCAASGFTFSDYYMAWVRQAPTKGLEWVASISYDGSSTYYRDSVKGRFTISRDNAKSTLYLQMDSLRSEDTATYYCGRHSSYFDYWGQGVMVTVSSASTKGPSVFPLAPCSRSTSESTAALGCLVKDYFPEPVTVSWNSGALTSGVHTFPAVLQSSGLYSLSSVVTVPSSNFGTQTYTCNVDHKPSNTKVDKTVERKCCVECPPCPAPPVAGPSVFLFPPKPKDTLMISRTPEVTCVVVDVEHEDPEVQFNWYVDGVEVHNAKTKPREEQFNSTFRVVSVLTVVHQDWLNGKEYKCKVSNKGLPAPIEKTISKTKGQPREPQVYTLPPSREEMTKNQVSLTCLVKGFYPSDIAVEWESNGQPENNYKTTPPMLDSDGSFFLYSKLTVDKSRWQQGNVFSCSVMHEALHNHYTQKSLSLSPGKLEPPPSTVSNMATVAVLVVLGAAIVTGAVVAFVMKMRRRNTGGKGGDYALAPGSQTSDLSLPDCKVMVHDPHSLA
5 | – | – | 4.85 | 5.16 | 6.17 | 1.27 | human IgG2 anti-mouse CD40 surface displayed antibody, Fc mutant S267E/P329R (antibody, name in EU numbering, as m1; positions are Eu numbers; copies: 2 + 2) light chain (with the P2A rest): DTVLTQSPALAVSPGERVTISCRASDSVSTLMHWYQQKPGQQPKLLIYLASHLESGVPARFSGSGSGTDFTLTIDPVEADDTATYYCQQSWNDPWTFGGGTKLELKRTVAAPSVFIFPPSDEQLKSGTASVVCLLNNFYPREAKVQWKVDNALQSGNSQESVTEQDSKDSTYSLSSTLTLSKADYEKHKVYACEVTHQGLSSPVTKSFNRGECGSGATNFSLLKQAGDVEENPG heavy chain: EVQLVESDGGLVQPGRSLKLPCAASGFTFSDYYMAWVRQAPTKGLEWVASISYDGSSTYYRDSVKGRFTISRDNAKSTLYLQMDSLRSEDTATYYCGRHSSYFDYWGQGVMVTVSSASTKGPSVFPLAPCSRSTSESTAALGCLVKDYFPEPVTVSWNSGALTSGVHTFPAVLQSSGLYSLSSVVTVPSSNFGTQTYTCNVDHKPSNTKVDKTVERKCCVECPPCPAPPVAGPSVFLFPPKPKDTLMISRTPEVTCVVVDVEHEDPEVQFNWYVDGVEVHNAKTKPREEQFNSTFRVVSVLTVVHQDWLNGKEYKCKVSNKGLRAPIEKTISKTKGQPREPQVYTLPPSREEMTKNQVSLTCLVKGFYPSDIAVEWESNGQPENNYKTTPPMLDSDGSFFLYSKLTVDKSRWQQGNVFSCSVMHEALHNHYTQKSLSLSPGKLEPPPSTVSNMATVAVLVVLGAAIVTGAVVAFVMKMRRRNTGGKGGDYALAPGSQTSDLSLPDCKVMVHDPHSLA
